# Source: paper PMC11275766 (bioRxiv, 2024)
# B1: M2 mAb (human IgG1) (antibody, V domains shown)
# VH: QLQESGPGLVKPSEILSLTCSVSGGSINTNMYYWGWIRQPPGKGLEWIGSIYYSGTTYYNPSLKSRVTMSVDTSENQFSLKLTSVTAADTSVYFCARLPLGERIDYWGRGTLVTVSS
# VL: SSDLTQPPSVSVSPGQTASITCSGNKLGDTYVFWYQQKPGQSPVAVINEDNKRPSGIPERFSGSNSGNTATLTISGTQTMDEADYYCQVWDSSQMVFGGGTKLTVL
# Target: ancestral SARS-CoV-2 RBD (recombinant, ELISA antigen) (SARS-CoV-2 ancestral (Wuhan-Hu-1/WA.1), UniProt P0DTC2)
# Experiment: ELISA
binder,measurement,value
B1,binding result,no binding (tested: 30 μg/mL)
